By Kd is commonly meant the free concentration of one partner at which half of the binding sites on the other are occupied at equilibrium, for simple one-to-one binding.

Data set [1] addresses EC-EGFR (soluble extracellular domain), disulfide-linked homodimer (human, UniProt P00533 25-645). Kind of data set: filter binding; Filter binding: 1 nM radiolabeled RNA, PBS + 0.01% BSA, 15 min, 37 C (5 mM DTT for monomer); CL4sc background subtracted; pull-down: 200 nM aptamer on A549 cells 30 min RT, lysis in 10 mM Tris-HCl pH 7.5, 200 mM NaCl, 5 mM EDTA, 0.1% Triton X-100. Particulars: protein: commercial, chain copies: 2.

Data set [2] deals with EC-ErbB3 (soluble extracellular domain), disulfide-linked homodimer (human, UniProt P21860 20-643). As to the kind of experiment: filter binding; 20 and 40 nM protein; Filter binding: 1 nM radiolabeled RNA, PBS + 0.01% BSA, 15 min, 37 C (5 mM DTT for monomer); CL4sc background subtracted; pull-down: 200 nM aptamer on A549 cells 30 min RT, lysis in 10 mM Tris-HCl pH 7.5, 200 mM NaCl, 5 mM EDTA, 0.1% Triton X-100. As to conditions: protein: commercial, chain copies: 2.
EC-ErbB3 (soluble extracellular domain), disulfide-linked homodimer, sequence (P21860 20-643): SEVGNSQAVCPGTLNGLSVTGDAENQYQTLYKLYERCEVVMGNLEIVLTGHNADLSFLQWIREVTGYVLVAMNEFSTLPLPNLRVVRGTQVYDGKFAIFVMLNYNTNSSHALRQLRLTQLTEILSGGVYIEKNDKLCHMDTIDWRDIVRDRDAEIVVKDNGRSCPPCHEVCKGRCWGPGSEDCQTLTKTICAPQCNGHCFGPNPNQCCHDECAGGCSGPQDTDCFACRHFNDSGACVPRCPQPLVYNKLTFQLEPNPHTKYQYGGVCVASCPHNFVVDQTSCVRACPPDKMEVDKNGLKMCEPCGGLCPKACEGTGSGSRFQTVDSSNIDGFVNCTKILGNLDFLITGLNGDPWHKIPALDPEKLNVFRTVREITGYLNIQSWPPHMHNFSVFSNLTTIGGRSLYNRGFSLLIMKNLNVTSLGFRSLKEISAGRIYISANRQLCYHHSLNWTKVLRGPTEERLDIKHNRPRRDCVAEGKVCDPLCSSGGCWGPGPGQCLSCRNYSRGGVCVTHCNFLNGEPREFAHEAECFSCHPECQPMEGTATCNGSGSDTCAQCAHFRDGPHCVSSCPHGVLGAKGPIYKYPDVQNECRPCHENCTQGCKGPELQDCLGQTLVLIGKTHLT

Take GCCUUAGUAACGUGCUUUGAUGUCGAUUCGACAGGAGGC (structured_RNA, 2'-fluoro pyrimidines) [CL4]: in data set [1], the Kd is 10 nM. Besides, the binding result in data set [2] is “no binding”.

The record behind these values is paper PMC3167817, “A Neutralizing RNA Aptamer against EGFR Causes Selective Apoptotic Cell Death”.
